Substitutions are numbered along the chain they refer to.
Columns and labels:
Assay in all cases: EMSA
Conditions in all cases: 40 mM Tris pH 7.6, 85 mM KCl, 19% glycerol, 4 mg/mL BSA, 0.5 mg/mL calf thymus DNA, 30 min at 30 C; 6% native PAGE in 0.5x TBE
[1] = target: T1, TorI-A46V A46V (Escherichia coli K-12 MG1655? (KplE1 prophage)) (UniProt Q2EES9)
T1 sequence: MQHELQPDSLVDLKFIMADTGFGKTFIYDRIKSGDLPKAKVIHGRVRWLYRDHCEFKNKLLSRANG

[2] = target: T2, TorI-F15L F15L (Escherichia coli K-12 MG1655? (KplE1 prophage)) (UniProt Q2EES9)
T2 sequence: T1 sequence with F15L, V46A

[3] = target: T3, TorI-F22I F22I (Escherichia coli K-12 MG1655? (KplE1 prophage)) (UniProt Q2EES9)
T3 sequence: T1 sequence with F22I, V46A

[4] = target: T4, TorI-L61S L61S (Escherichia coli K-12 MG1655? (KplE1 prophage)) (UniProt Q2EES9)
T4 sequence: T1 sequence with V46A, L61S

[5] = target: T5, TorI-M17V M17V (Escherichia coli K-12 MG1655? (KplE1 prophage)) (UniProt Q2EES9)
T5 sequence: T1 sequence with M17V, V46A

[6] = target: T6, TorI-R45Q R45Q (Escherichia coli K-12 MG1655? (KplE1 prophage)) (UniProt Q2EES9)
T6 sequence: T1 sequence with R45Q, V46A

[7] = target: T7, TorI-Y28F Y28F (Escherichia coli K-12 MG1655? (KplE1 prophage)) (UniProt Q2EES9)
T7 sequence: T1 sequence with Y28F, V46A

Sequence: CATCGAGAAGGCGGTATGGTTTTTCTTTCGGCTTTGCTGCTTCAATCTGCTTAACGGTGAGCATGGGTAAAAATCCGGTGGGTAAAATTATTTTATCCACTTTTTACCCGTCATGGAGTGCGGCTGTCAACGATCTGAAGCGAACCATGACGAACTGTAAATCTACGGAATGCTTGATATTCAGGGGATTTTGCGGACTGGTACGGATGGGAGCGAACTGATAAATGGTGTCCCCTGCAGGAATCGAACCTGCAATTAGCCCTTAGGAGGGGCTCGTTATATCCATT (double strand) [KplE1 attL]
- binding [1]: binds more weakly
- binding [2]: binds more weakly
- binding [3]: no binding
- binding [4]: binds
- binding [5]: binds more weakly
- binding [6]: binds more weakly
- binding [7]: binds more weakly
